Assay results published in US20220356266A1 (Janssen / Centocor, published 2022).

Tests used:
Test in all cases: cell-based or functional assay
KLK2 on VCaP cells [1] = biological target: T1, KLK2 on VCaP cells (UniProt P20151 25-261, limits assumed)
KLK2 on VCaP cells [2] = biological target: T1, KLK2 on VCaP cells; remark: listed apart in the source
[3] = biological target: PSMA on C42B and LNCap cells (UniProt Q04609 1-750, limits assumed)
Chain of PSMA on C42B and LNCap cells (Q04609 whole entry): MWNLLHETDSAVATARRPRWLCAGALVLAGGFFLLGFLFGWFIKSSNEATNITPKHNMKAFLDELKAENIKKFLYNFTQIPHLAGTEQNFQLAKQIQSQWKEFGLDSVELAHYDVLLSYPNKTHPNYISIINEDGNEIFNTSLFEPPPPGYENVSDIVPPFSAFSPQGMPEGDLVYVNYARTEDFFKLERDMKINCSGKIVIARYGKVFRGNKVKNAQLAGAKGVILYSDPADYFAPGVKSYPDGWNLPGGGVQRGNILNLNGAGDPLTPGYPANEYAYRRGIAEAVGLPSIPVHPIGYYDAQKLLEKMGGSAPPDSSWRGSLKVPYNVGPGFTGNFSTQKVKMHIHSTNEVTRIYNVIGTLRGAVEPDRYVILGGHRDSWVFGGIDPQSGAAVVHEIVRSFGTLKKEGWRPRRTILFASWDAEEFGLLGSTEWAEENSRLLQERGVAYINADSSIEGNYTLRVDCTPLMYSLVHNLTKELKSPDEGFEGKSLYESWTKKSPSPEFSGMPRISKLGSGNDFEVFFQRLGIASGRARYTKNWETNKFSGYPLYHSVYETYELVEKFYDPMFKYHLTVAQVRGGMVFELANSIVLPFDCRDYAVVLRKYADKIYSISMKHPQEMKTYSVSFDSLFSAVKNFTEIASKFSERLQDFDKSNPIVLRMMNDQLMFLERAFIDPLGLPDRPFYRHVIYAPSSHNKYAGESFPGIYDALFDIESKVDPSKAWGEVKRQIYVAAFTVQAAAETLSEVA

T1 sequence (P20151 25-261 limits assumed): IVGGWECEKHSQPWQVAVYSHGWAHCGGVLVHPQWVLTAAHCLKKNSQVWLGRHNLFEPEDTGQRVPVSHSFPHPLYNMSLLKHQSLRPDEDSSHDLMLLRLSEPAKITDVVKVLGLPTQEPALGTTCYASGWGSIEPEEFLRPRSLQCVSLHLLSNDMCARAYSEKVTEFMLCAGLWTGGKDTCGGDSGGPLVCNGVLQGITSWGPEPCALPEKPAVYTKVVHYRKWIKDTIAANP

| Binder | EC50 (M), in vitro ADCC dose-response killing by PBMC on VcaP cells at 48 hour (KLK2 on VCaP cells [1]) [M] | ADCC activity, percent cell killing of VcaP cells by PBMC (KLK2 on VCaP cells [2]) [%] | In vitro ADCC killing EC50 (M), NK cells at 24 hour, C42B cells [3] [M] | In vitro ADCC killing EC50 (M), NK cells at 24 hour, LNCap cells [3] [M] | In vitro ADCC killing EC50 (M), PBMC at 6 hour, C42B cells [3] [M] | In vitro ADCC killing EC50 (M), PBMC at 6 hour, LNCap cells [3] [M] |
| --- | --- | --- | --- | --- | --- | --- |
| KL2B870 (KL2B30 in hIgG1-RE) (antibody) heavy: not shown light: DIQMTQSPSFLSASVGDRVTITCRASQGISSYLAWYQQKPGKAPKFLIYAASTLQSGVPSRFSGSGSGTEFTLTISSLQPEDFATYYCQQLNSYPLTFGGGTKVEIKRTVAAPSVFIFPPSDEQLKSGTASVVCLLNNFYPREAKVQWKVDNALQSGNSQESVTEQDSKDSTYSLSSTLTLSKADYEKHKVYACEVTHQGLSSPVTKSFNRGEC | 1e-09 | ~73 | – | – | – | – |
| KL2B872.CLF (antibody, human IgG1, kappa, low fucosylation of the Asn-297-linked N-oligosaccharide (expressed in fucosylation-deficient cells)) heavy: not shown light: DIQMTQSPSFLSASVGDRVTITCRASQGISSYLAWYQQKPGKAPKFLIYAASTLQSGVPSRFSGSGSGTEFTLTISSLQPEDFATYYCQQLNSYPLTFGGGTKVEIKRTVAAPSVFIFPPSDEQLKSGTASVVCLLNNFYPREAKVQWKVDNALQSGNSQESVTEQDSKDSTYSLSSTLTLSKADYEKHKVYACEVTHQGLSSPVTKSFNRGEC | 4.12e-10 | ~85 | – | – | – | – |
| KL2B870.CLF (antibody, human IgG1, kappa, low fucosylation of the Asn-297-linked N-oligosaccharide (expressed in fucosylation-deficient cells)) heavy: not shown light: DIQMTQSPSFLSASVGDRVTITCRASQGISSYLAWYQQKPGKAPKFLIYAASTLQSGVPSRFSGSGSGTEFTLTISSLQPEDFATYYCQQLNSYPLTFGGGTKVEIKRTVAAPSVFIFPPSDEQLKSGTASVVCLLNNFYPREAKVQWKVDNALQSGNSQESVTEQDSKDSTYSLSSTLTLSKADYEKHKVYACEVTHQGLSSPVTKSFNRGEC | 3.54e-10 | ~89 | – | – | – | – |
| PSMB952 (antibody, V domains shown) VH: EVQLVESGGGLVQPGGSLRLSCAASGFTFSSYAMSWVRQAPGKGLEWVSAISGGIGSTYYADSVKGRFTISRDNSKNTLWLQMNSLRAEDTAVYYCAKDGVGATPYYFDYWGQGTLVTVSS VL: QSVLTQPPSVSAAPGQKVTISCSGSSSNIGINYVSWYQQLPGTAPKLLIYDNNKRPSGIPDRFSGSKSGTSATLGITGLQTGDEADYYCGTWDSSLSAVVFGGGTKLTVL | – | – | 2.45e-11 | 4.59e-11 | 3.51e-10 | 2.01e-10 |
| PSMB956 (antibody, V domains shown) VH: EVQLVESGGGLVQPGGSLRLSCAASGFTFSSYAMSWVRQAPGKGLEWVSAISGGSGSTYYADSVKGRFTISRDNSKNTLYLQMNSLRAEDSAVYYCAKDGVGATPYYFDYWGQGTLVTVSS VL: QSVLTQPPSVSAAPGQKVTISCSGSSSNIGINYVSWYQQLPGTAPKLLIYDNNKRPSGIPDRFSGSKSGTSATLGITGLQTGDEADYYCGTWDSSLSAVVFGGGTKLTVL | – | – | 9.96e-12 | 3.58e-11 | 4.23e-10 | 1.52e-10 |
